Experimental findings from US20260092093A1 (TJ BIOPHARMA SHANGHAI, published 2026) are described below.

What all share (assay): cell-based or functional assay
Test [1] has as its target T1, hIL-18 receptor (hIL-18Rα and hIL-18Rβ) (human, UniProt Q13478 19-541; O95256 20-599).
T1 sequence (looked up) 1: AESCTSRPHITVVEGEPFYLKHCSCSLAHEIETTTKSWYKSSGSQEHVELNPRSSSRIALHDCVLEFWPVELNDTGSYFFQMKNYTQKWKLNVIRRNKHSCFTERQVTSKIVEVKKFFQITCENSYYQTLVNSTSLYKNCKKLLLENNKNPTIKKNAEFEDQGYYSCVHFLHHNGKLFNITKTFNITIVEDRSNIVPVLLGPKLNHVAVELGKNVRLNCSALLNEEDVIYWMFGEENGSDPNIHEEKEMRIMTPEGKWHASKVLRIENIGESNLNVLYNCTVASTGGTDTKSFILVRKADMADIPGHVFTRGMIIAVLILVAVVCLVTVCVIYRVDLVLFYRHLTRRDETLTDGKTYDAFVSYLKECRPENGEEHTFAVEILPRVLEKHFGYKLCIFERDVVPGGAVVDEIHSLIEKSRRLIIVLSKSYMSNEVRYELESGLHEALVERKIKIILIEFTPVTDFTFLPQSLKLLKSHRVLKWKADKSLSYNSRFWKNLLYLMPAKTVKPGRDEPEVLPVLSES
T1 sequence (looked up) 2: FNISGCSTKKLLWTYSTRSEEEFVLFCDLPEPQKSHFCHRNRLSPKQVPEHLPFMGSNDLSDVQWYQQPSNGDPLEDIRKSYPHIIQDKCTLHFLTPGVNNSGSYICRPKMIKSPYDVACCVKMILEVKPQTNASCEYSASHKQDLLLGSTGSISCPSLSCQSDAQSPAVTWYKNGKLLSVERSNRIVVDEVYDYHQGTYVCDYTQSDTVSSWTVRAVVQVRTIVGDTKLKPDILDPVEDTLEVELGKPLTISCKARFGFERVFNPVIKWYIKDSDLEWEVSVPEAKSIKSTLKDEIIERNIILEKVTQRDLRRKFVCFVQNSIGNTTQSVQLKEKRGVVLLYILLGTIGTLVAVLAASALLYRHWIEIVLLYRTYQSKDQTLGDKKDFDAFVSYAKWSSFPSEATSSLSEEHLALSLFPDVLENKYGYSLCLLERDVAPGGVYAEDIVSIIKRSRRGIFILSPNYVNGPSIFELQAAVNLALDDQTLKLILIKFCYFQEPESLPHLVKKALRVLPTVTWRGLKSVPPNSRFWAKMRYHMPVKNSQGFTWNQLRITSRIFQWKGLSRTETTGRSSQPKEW

Test [2] addresses T2, hIL-18BP-hFc (human, UniProt O95998 31-194, limits assumed).
T2 sequence (looked up): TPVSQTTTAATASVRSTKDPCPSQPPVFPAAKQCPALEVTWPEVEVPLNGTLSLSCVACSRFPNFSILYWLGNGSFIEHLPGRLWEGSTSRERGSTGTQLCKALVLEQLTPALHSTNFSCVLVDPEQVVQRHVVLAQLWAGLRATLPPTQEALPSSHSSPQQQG

Test [3] deals with T1, hIL-18 receptor (hIL-18Rα and hIL-18Rβ). The source holds these as a separate data set.
Test [4] deals with T2, hIL-18BP-hFc. This is another data set of the same source.

B1: IL-18 variant polypeptide M29 (ligand)
chain: YFPKLMSKLSVIRNLNDQVLFIDQGNRPLFEDMTDSDCRDNAPRTIFIISMYKFSDRRGMAVTISVKCEKISTLSCENKIISFKEMNPPDPIKDTKSDIIFFQRSVPGHDNKMQFESSSYEGYFLACEKERDLFKLILKKEDELGDRSIMFTVQNED
For B1, the “EC50 (nM), hIL-18 reporter assay” value in test [1] amounted to 4.8 nM. For the same molecule, in the test with hIL-18BP-hFc [2], the “EC50 (nM) in the Presence of 1 µg/mL hIL-18BP-hFc, hIL-18 reporter assay” value was 1.9 nM and the “EC50 Fold Change (+BP/-BP), hIL-18 reporter assay” value came out at 0.4 fold. Also, the “EC50 (nM), PBMC assay (hIFNγ release)” value in test [3] was determined as 0.14 nM. For the same molecule, in the test with hIL-18BP-hFc [4], the “EC50 (nM) in the Presence of 1 µg/mL hIL-18BP-hFc, PBMC assay (hIFNγ release)” value (from here on “EC50 (nM) in the Presence … (hIFNγ release)”) came to 0.096 nM and the “EC50 Fold Change (+BP/-BP), PBMC assay (hIFNγ release)” value (shortened to “EC50 Fold Change … (hIFNγ release)”) was found to be 0.69 fold.

B2: IL-18 variant polypeptide M11 (ligand)
chain: YFPKLRSKLSVIRNLNDQVLFIDQGNRPLFEDMTDSDCRDNAPRTIFIISMYKSSRNRGMAVTISVKCEKISTLSCENKIISFKEMNPPDGIKDTKSDIIFFQTSVPGHDNKMQFESSSYEGYFLACEKERDLFKLILKKEDELGDRSIMFTVQNED
As for B2, the “EC50 (nM), hIL-18 reporter assay” value in test [1] amounted to 0.13 nM. For the same molecule, in the test with hIL-18BP-hFc [2], the “EC50 (nM) in the Presence of 1 µg/mL hIL-18BP-hFc, hIL-18 reporter assay” value is 0.21 nM and the “EC50 Fold Change (+BP/-BP), hIL-18 reporter assay” value amounted to 1.62 fold. In test [3], the “EC50 (nM), PBMC assay (hIFNγ release)” value amounted to 0.044 nM. Also, in the test with hIL-18BP-hFc [4], the “EC50 (nM) in the Presence … (hIFNγ release)” value is 0.068 nM and the “EC50 Fold Change … (hIFNγ release)” value amounted to 1.55 fold.

B3: IL-18 variant polypeptide WM10 (ligand)
chain: YFPKLKSKLSVIRNLNDQVLFIDQGNRPLFEDMTDSDCRDNAPRTIFIISMYKDSQPRGMAVTISVKCEKISTLSCENKIISFKEMNPPDSIKDTKSDIIFFQRSVPGHDNKMQFESSSYEGYFLACEKERDLFKLILKKEDELGDRSIMFTVQNED
In the case of B3, the “EC50 (nM), hIL-18 reporter assay” value in test [1] is 14.7 nM. Further, in the test with hIL-18BP-hFc [2], the “EC50 (nM) in the Presence of 1 µg/mL hIL-18BP-hFc, hIL-18 reporter assay” value was 15.6 nM and the “EC50 Fold Change (+BP/-BP), hIL-18 reporter assay” value was determined as 1.06 fold. Further, the “EC50 (nM), PBMC assay (hIFNγ release)” value in test [3] worked out at 0.53 nM. In the test with hIL-18BP-hFc [4], the “EC50 (nM) in the Presence … (hIFNγ release)” value stood at 0.44 nM and the “EC50 Fold Change … (hIFNγ release)” value was determined as 0.83 fold.

B4: IL-18 variant polypeptide M36 (ligand)
chain: YFPKLSSKLSVIRNLNDQVLFIDQGNRPLFEDMTDSDCRDNAPRTIFIISMYKASDQRGMAVTISVKCEKISTLSCENKIISFKEMNPPDGIKDTKSDIIFFQRSVPGHDNKMQFESSSYEGYFLACEKERDLFKLILKKEDELGDRSIMFTVQNED
In the case of B4, the “EC50 (nM), hIL-18 reporter assay” value in test [1] was 3.9 nM. Further, in the test with hIL-18BP-hFc [2], the “EC50 (nM) in the Presence of 1 µg/mL hIL-18BP-hFc, hIL-18 reporter assay” value is 2.5 nM and the “EC50 Fold Change (+BP/-BP), hIL-18 reporter assay” value is 0.64 fold. For the same molecule, the “EC50 (nM), PBMC assay (hIFNγ release)” value in test [3] stood at 1.1 nM. Moreover, in the test with hIL-18BP-hFc [4], the “EC50 (nM) in the Presence … (hIFNγ release)” value is 0.8 nM and the “EC50 Fold Change … (hIFNγ release)” value came out at 0.73 fold.

B5: IL-18 variant polypeptide M35 (ligand)
chain: YFPKLRSKLSVIRNLNDQVLFIDQGNRPLFEDMTDSDCRDNAPRTIFIISMYKGSGARGMAVTISVKCEKISTLSCENKIISFKEMNPPDGIKDTKSDIIFFQRSVPGHDNKMQFESSSYEGYFLACEKERDLFKLILKKEDELGDRSIMFTVQNED
As for B5, the “EC50 (nM), hIL-18 reporter assay” value in test [1] is 0.62 nM. Besides, in the test with hIL-18BP-hFc [2], the “EC50 (nM) in the Presence of 1 µg/mL hIL-18BP-hFc, hIL-18 reporter assay” value came out at 0.51 nM and the “EC50 Fold Change (+BP/-BP), hIL-18 reporter assay” value amounted to 0.82 fold. For the same molecule, the “EC50 (nM), PBMC assay (hIFNγ release)” value in test [3] stood at 0.085 nM. Moreover, in the test with hIL-18BP-hFc [4], the “EC50 (nM) in the Presence … (hIFNγ release)” value worked out at 0.14 nM and the “EC50 Fold Change … (hIFNγ release)” value is 1.65 fold.

B6: IL-18 variant polypeptide M32 (ligand)
chain: YFPKLGSKLSVIRNLNDQVLFIDQGNRPLFEDMTDSDCRDNAPRTIFIISMYKSSSRRGMAVTISVKCEKISTLSCENKIISFKEMNPPDNIKDTKSDIIFFQRSVPGHDNKMQFESSSYEGYFLACEKERDLFKLILKKEDELGDRSIMFTVQNED
Consider B6, for which, in test [1], the “EC50 (nM), hIL-18 reporter assay” value was 5.9 nM. Moreover, in the test with hIL-18BP-hFc [2], the “EC50 (nM) in the Presence of 1 µg/mL hIL-18BP-hFc, hIL-18 reporter assay” value was 4.1 nM and the “EC50 Fold Change (+BP/-BP), hIL-18 reporter assay” value amounted to 0.69 fold. Moreover, the “EC50 (nM), PBMC assay (hIFNγ release)” value in test [3] turned out to be 0.13 nM. Moreover, in the test with hIL-18BP-hFc [4], the “EC50 (nM) in the Presence … (hIFNγ release)” value was determined as 0.1 nM and the “EC50 Fold Change … (hIFNγ release)” value came to 0.77 fold.

B7: IL-18 variant polypeptide MM5 (ligand)
chain: YFGKLGSKLSVIRNLNDQVLFIDQGNRPLFEDMTDSDCRDNAPRTIFIISMYKLSTERGMAVTISVKCEKISTLSCENKIISFKEMNPPDGIKDTKSDIIFFQSSVPGHDNKMQFESSSYEGYFLACEKERDLFKLILKKEDELGDRSIMFTVQNED
For the molecule B7, the “EC50 (nM), hIL-18 reporter assay” value in test [1] came out at 0.028 nM. In the test with hIL-18BP-hFc [2], the “EC50 (nM) in the Presence of 1 µg/mL hIL-18BP-hFc, hIL-18 reporter assay” value was determined as 0.08 nM and the “EC50 Fold Change (+BP/-BP), hIL-18 reporter assay” value was found to be 2.86 fold. In addition, in test [3], the “EC50 (nM), PBMC assay (hIFNγ release)” value was determined as 0.035 nM. Moreover, in the test with hIL-18BP-hFc [4], the “EC50 (nM) in the Presence … (hIFNγ release)” value amounted to 0.045 nM and the “EC50 Fold Change … (hIFNγ release)” value is 1.29 fold.

B8: IL-18 variant polypeptide WM8 (ligand)
chain: YFPKLRSKLSVIRNLNDQVLFIDQGNRPLFEDMTDSDCRDNAPRTIFIISMYKDSQPRGMAVTISVKCEKISTLSCENKIISFKEMNPPDSIKDTKSDIIFFQRSVPGHDNKMQFESSSYEGYFLACEKERDLFKLILKKEDELGDRSIMFTVQNED
As for B8, in test [1], the “EC50 (nM), hIL-18 reporter assay” value was 7 nM. In addition, in the test with hIL-18BP-hFc [2], the “EC50 (nM) in the Presence of 1 µg/mL hIL-18BP-hFc, hIL-18 reporter assay” value was found to be 5.2 nM and the “EC50 Fold Change (+BP/-BP), hIL-18 reporter assay” value was found to be 0.74 fold. Also, the “EC50 (nM), PBMC assay (hIFNγ release)” value in test [3] is 0.68 nM. Further, in the test with hIL-18BP-hFc [4], the “EC50 (nM) in the Presence … (hIFNγ release)” value stood at 1.02 nM and the “EC50 Fold Change … (hIFNγ release)” value was determined as 1.5 fold.

B9: IL-18 variant polypeptide M12 (ligand)
chain: YFPKLKSKLSVIRNLNDQVLFIDQGNRPLFEDMTDSDCRDNAPRTIFIISMYKGSGARGMAVTISVKCEKISTLSCENKIISFKEMNPPDTIKDTKSDIIFFQRSVPGHDNKMQFESSSYEGYFLACEKERDLFKLILKKEDELGDRSIMFTVQNED
B9: in test [1], the “EC50 (nM), hIL-18 reporter assay” value was determined as 0.04 nM. In addition, in the test with hIL-18BP-hFc [2], the “EC50 (nM) in the Presence of 1 µg/mL hIL-18BP-hFc, hIL-18 reporter assay” value is 0.03 nM and the “EC50 Fold Change (+BP/-BP), hIL-18 reporter assay” value is 0.75 fold. The “EC50 (nM), PBMC assay (hIFNγ release)” value in test [3] is 0.043 nM. In addition, in the test with hIL-18BP-hFc [4], the “EC50 (nM) in the Presence … (hIFNγ release)” value amounted to 0.045 nM and the “EC50 Fold Change … (hIFNγ release)” value came out at 1.05 fold.

B10: IL-18 variant polypeptide M33 (ligand)
chain: YFEKLHSKLSVIRNLNDQVLFIDQGNRPLFEDMTDSDCRDNAPRTIFIISMYKRSTHRGMAVTISVKCEKISTLSCENKIISFKEMNPPDNIKDTKSDIIFFQRSVPGHDNKMQFESSSYEGYFLACEKERDLFKLILKKEDELGDRSIMFTVQNED
With B10, in test [1], the “EC50 (nM), hIL-18 reporter assay” value was 18.4 nM. Moreover, in the test with hIL-18BP-hFc [2], the “EC50 (nM) in the Presence of 1 µg/mL hIL-18BP-hFc, hIL-18 reporter assay” value was 10.7 nM and the “EC50 Fold Change (+BP/-BP), hIL-18 reporter assay” value was 0.58 fold. In addition, the “EC50 (nM), PBMC assay (hIFNγ release)” value in test [3] came to 0.51 nM. For the same molecule, in the test with hIL-18BP-hFc [4], the “EC50 (nM) in the Presence … (hIFNγ release)” value is 0.35 nM and the “EC50 Fold Change … (hIFNγ release)” value stood at 0.69 fold.
